This note sets out measurements from patent US20240301069A1 (GUANGDONG FAPON BIOPHARMA, published 2024).

The target of test [1] is T1, recombinant human PD-L1 protein carrying a hFc label (human, UniProt Q9NZQ7 19-238).
T1 construct: Self-produced; also called hPD-L1 hFc; PD-L1-hFc; not shown: human Fc label
Kind of test: flow cytometry blocking assay (method 2): antibody titrated; binding of recombinant human PD-L1-hFc to PD-1 on CHO-hPD-1 cells is blocked. As to the method:
The 1×FCM buffer was used to dilute the self-produced recombinant human PD-L1 protein carrying hFc, until the concentration reached 2 μg/mL. The 1×FCM buffer was used to resuspend the CHO-hPD-1 cells to the cell density of 2×10E6/mL, and the cells were evenly spread in the 96-well V base plate in 100 μL/well. […] After 250×g was taken to perform centrifugation for 5 min, supernatant was discarded in a sucking manner; after washing was performed once with the 1×FCM buffer, APC-labeled goat anti-mouse Fc fluorescent secondary antibodies (Biolegend) diluted by the 1×FCM buffer (dilution ratio being 1:500) were added in 100 μL/well; and incubation was performed on ice for 30 min. After 250×g was taken to perform centrifugation for 5 min, supernatant was discarded in a sucking manner. After washing was performed for 2 times with the 1×FCM buffer, the cells were resuspended by adding the 1×PBS in 100 μL/well; and the flow cytometer (Beckman, CytoFLEX) was used for detection.

Test [2] deals with T2, human CTLA-4 protein (Acrobiosystem), hCTLA-4 hFc (human, UniProt P16410 37-162, limits assumed).
T2 construct: Bought; not shown: human Fc
T2 sequence (P16410 37-162 limits assumed): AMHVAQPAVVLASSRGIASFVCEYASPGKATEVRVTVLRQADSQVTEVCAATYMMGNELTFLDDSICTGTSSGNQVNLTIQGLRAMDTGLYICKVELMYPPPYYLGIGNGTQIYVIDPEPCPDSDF
Briefly: ELISA on coated hCTLA-4 hFc. Here is the method: (§1) Supernatant was discarded; a blocking solution (1×PBS+1% BSA) was added in 200 μL/well; and blocking was performed for 1 h at 37° C. […] Washing was performed for 3 times with the 1×PBS. HRP-labeled goat anti-mouse IgG (sigma A0168-1ML) was added in 100 μL/well; incubation was performed for 30 min at 37° C. in a standing manner; and after washing was performed for 3 times with the 1×PBS, a color reaction was performed.

Test [3] deals with T3, human PD-L1 full-length protein on CHO-hPD-L1 stable cells (human, UniProt Q9NZQ7 19-290).
T3 construct: also called membrane protein PD-L1
T3 sequence (Q9NZQ7 19-290 limits assumed): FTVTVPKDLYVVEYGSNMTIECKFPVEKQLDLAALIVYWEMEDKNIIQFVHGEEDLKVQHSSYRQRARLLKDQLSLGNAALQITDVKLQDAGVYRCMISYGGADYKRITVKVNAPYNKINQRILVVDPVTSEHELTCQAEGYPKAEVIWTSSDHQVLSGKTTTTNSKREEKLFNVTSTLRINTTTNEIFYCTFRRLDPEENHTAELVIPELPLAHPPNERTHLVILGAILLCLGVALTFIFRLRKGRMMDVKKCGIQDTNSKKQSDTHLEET
Briefly: flow cytometry, antibody titration on CHO-hPD-L1 cells, MFI-APC.

Test [4] deals with T4, human PD-L1 extracellular domain recombinant protein hPD-L1-his (human, UniProt Q9NZQ7 19-238).
T4 construct: extracellular domain; Home-made; also called human PD-L1 recombinant protein; not shown: his label
T4 sequence (Q9NZQ7 19-238): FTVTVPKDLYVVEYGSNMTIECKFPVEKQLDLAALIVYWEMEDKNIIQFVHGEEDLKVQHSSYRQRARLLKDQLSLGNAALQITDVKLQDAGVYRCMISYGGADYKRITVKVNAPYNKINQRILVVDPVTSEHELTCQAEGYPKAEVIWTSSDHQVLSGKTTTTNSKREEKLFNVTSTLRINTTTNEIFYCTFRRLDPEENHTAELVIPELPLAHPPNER
Kind of test: BLI (ForteBIO QKe), hPD-L1-his captured on an anti-Penta-HIS sensor, antibody in solution. Here is the method:
An experimental method included the following.
An equilibration buffer (1×PBS+0.02% Tween20) was used to dilute a home-made human PD-L1 extracellular domain recombinant protein hPD-L1-his carrying a his label, until a final concentration reached 5 μg/mL. […] The whole reaction was undergone at 25° C. and 1000 rpm.

For test [5], the target named is T5, human ICOSLG protein (Acrobiosystem), hICOSLGhFc (human, UniProt O75144 19-258, limits assumed).
T5 construct: Bought; also called B7-H2; not shown: human Fc
T5 sequence (looked up): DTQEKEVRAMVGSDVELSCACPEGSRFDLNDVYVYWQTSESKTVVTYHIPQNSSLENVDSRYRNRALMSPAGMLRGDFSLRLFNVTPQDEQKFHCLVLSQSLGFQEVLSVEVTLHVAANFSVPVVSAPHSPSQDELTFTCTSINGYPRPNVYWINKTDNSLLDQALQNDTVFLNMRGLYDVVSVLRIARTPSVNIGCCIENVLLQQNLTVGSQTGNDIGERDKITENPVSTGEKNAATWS
Briefly: ELISA on coated hICOSLG hFc. As to the method: as §1

Test [6] has as its target T6, human B7-H3 protein (Acrobiosystem), hB7-H3 hFc (human, UniProt Q5ZPR3-2 29-245, limits assumed).
T6 construct: Bought; not shown: human Fc
T6 sequence (looked up): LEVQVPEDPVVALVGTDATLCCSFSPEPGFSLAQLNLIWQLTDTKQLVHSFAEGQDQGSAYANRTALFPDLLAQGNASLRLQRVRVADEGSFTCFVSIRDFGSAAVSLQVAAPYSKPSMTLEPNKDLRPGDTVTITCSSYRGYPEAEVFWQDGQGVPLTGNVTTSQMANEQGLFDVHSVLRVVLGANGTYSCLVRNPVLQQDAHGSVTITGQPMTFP
Kind of test: ELISA on coated hB7-H3 hFc. As to the method: as §1

The target in test [7] is T3, human PD-L1 full-length protein on …. Kind of test: flow cytometry blocking assay: antibody titrated on CHO-hPD-L1 cells; blocked ligand recombinant human CD80-hFc.
In test [8] the target is T7, human CD86 protein (Acrobiosystem), hCD86 hFc (human, UniProt P42081 26-247, limits assumed).
T7 construct: Bought; also called B7-2; not shown: human Fc
T7 sequence (looked up): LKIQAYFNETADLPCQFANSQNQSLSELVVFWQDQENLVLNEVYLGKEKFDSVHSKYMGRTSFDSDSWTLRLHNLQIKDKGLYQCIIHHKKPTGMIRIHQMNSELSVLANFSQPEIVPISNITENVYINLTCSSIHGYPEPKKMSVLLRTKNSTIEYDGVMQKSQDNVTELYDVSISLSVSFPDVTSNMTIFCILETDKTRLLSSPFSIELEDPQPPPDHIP
Briefly: ELISA on coated hCD86 hFc. As to the method:
as §1

For test [9], the target named is T8, human CD28 protein (Acrobiosystem), hCD28 hFc (human, UniProt P10747 19-152).
T8 construct: Bought; not shown: human Fc
Kind of test: ELISA on coated hCD28 hFc. Here is the method:
as §1

The target of test [10] is macaque PD-L1 on CHO-cynoPD-L1 stable cells (macaque, UniProt Q9NZQ7 19-290 (human entry)). Briefly: flow cytometry, antibody titration on CHO-cynoPD-L1 cells, MFI-APC.
Sequence of macaque PD-L1 on CHO-cynoPD-L1 stable cells (Q9NZQ7 other isoform, or with tags, fused parts or gaps limits assumed): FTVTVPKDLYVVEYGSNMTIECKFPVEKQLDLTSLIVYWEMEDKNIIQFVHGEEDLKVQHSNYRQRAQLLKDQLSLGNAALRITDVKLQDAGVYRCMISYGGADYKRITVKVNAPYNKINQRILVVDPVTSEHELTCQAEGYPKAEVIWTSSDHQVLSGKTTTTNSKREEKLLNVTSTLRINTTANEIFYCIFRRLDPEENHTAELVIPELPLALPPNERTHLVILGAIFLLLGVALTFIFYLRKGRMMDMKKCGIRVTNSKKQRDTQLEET

T1 sequence (Q9NZQ7 19-238): as the sequence (Q9NZQ7 19-238) above

B1: F016-21 (antibody, V domains shown)
VH: EVQLQQSGPELVKPGASVKMSCKASGYTFTDYVMHWVKQKPGQGLEWIGYINPYNDGTKFNEKFKGKATLTSDKSSSTAYMELSSLTSEDSAVYYCAKQTLDYWGQGTSVTVSS
VL: DIVLTQSPASLAVSLGQRATISCRASESVEYFGTTLMQWYQQRPGQPPKLLIYAASNVESGVPARFSGSGSGTDFSLNIHPVEEDDIAMYFCQQSRKVPYTFGGGTKLEIKR
notes: Mouse hybridoma monoclonal antibody purified from clone supernatant; also called anti-human PD-L1 antibody F016-21
In the case of B1, the IC50 in [1] worked out at 1.18 nM; in test [7], 4.11 nM. The binding result in test [2], in test [5], in test [6], in test [8] and in test [9] was “no binding (tested: 10 µg/mL)” throughout. The concentration for a half-maximal effect (EC50) is 0.502 nM in [3] and 0.947 nM in test [10]. For the same molecule, in test [4], the Kd came out at 0.0566 nM.
